Common to all, as to format: biochemical
In data set [1] the test system is mevalonate kinase. Nature of the data set: Expression analysis and activity confirmation of His-tagged mevalonate kinases from pET-21a(+) and pET-28b(+). Conditions: His-spinTrap eluate after dialysis, 10 μl enzyme solution. As to the method:
Each obtained plasmid was used for transformation of E. coli BL21(DE3). […] When OD600 reached approximately 0.5, IPTG was added to the solution to final concentration of 1 mM. It was then cultured overnight at 20° C. Harvested cells were suspended in the buffer solution consisting of 50 mM sodium phosphate, 0.3 M NaCl and 20 mM Imidazol. Then the cells were disrupted with an ultrasonic disruptor (TOMY: UD-201, output level=3.5). After centrifugation (20,000×g, 20 min), disrupted cells were adsorbed to His-spinTrap (GE Healthcare). After washing with the same buffer solution, protein was eluted with the buffer solution consisting of 50 mM sodium phosphate, 0.3 M NaCl and 0.5 M imidazole (pH7.5). Eluate was dialyzed overnight at 4° C. with the external solution composed of 20 mM Tris-HCl (pH7.5) and 50 mM NaCl. Then, enzyme activity of each eluate in the internal dialysis solution was measured.
Activity of the internal dialysate (about 0.2 ml each) was measured with the 10 μl of enzyme solution (Table 8). Enzyme expression level was compared on activity basis between pET-21a(+) and pET-28b(+). […] It is inferred that expression level is higher in pET-28b(+). Therefore, purified enzyme expressed in pET-28b(+) was used in the further examinations.
Values were presented by decrease in absorbance per unit time per 10 μl in the enzyme reaction measurement system (dABS/min/10 μl).
(§1) Decrease in absorbance at 340 nm at 30° C. was measured to determine the enzyme activity. JASCO Corporation's spectrophotometer (V-650) was used in this study. Millimolar extinction coefficient of NADH used in this study was 6.22 mM^−1 cm^−1. […] Km value was calculated by Lineweaver-Burk plot.

Data set [2] deals with mevalonate kinase. Nature of the data set: Measurement of activity and Km value of purified mevalonate kinase (PK/LDH coupled, 340 nm). The settings on record: 10 μl enzyme in 1 ml, replicate values; for dABS/min at mev 0.01 mM: potassium mevalonate 0.01 mM; for dABS/min at mev 0.04 mM: potassium mevalonate 0.04 mM; for dABS/min at mev 0.2 mM: potassium mevalonate 0.2 mM. As to the method:
Each obtained plasmid was used for transformation of E. coli BL21(DE3). […] When OD600 reached approximately 0.5, 0.1 mM IPTG (for cva, mma, nmr, and sce) or 1 mM (for mcl and mpd) of IPTG was added, and then the mixture was kept at 20° C. overnight to induce the target protein. Harvested cells were suspended in buffer solution A (50 mM sodium phosphate, 0.3 M NaCl and 20 mM Imidazol), and then the cells were disrupted with an ultrasonic disruptor (TOMY: UD-201). […] After centrifugation (28,000×g, 30 min), the supernatant was adsorbed onto His-Trap HP (GE Healthcare) to elute the target protein by linear concentration gradient of Imidazol (final concentration 0.5 M). Obtained protein was dialyzed by using an external solution composed of 20 mM Tris-HCl (pH 8.0) containing 1 mM DTT and 50 mM NaCl. Dialyzed protein was designated as purified enzyme. Protein quantity was measured with Bio-RAD protein assay kit and BSA standard condition.
as §1
Measured activity of each enzyme (JABS/min) was presented on Table 9 for the calculation of apparent Km value (Km app.) of each enzyme. Table 10 presents Km app., Vmax, molecular weight of the enzyme protein, protein concentration in the enzyme solution and calculated kcat.
Activity was indicated by dABS/min when 10 μl of each enzyme was added to 1 ml of reaction solution.

Data set [3] concerns mevalonate kinase. As to the kind of experiment: Inhibition of each mevalonate kinase by DMAPP, GPP, FPP or DPM. As to the method:
Since GPP and FPP solutions contain methanol, methanol which was needed to keep the same methanol level at the addition to the reaction system was added to the reaction solution, which was designated as control.
Respective effect of the added 5 mM DMAPP, 0.1 mM GPP, and 0.1 mM FPP on the activity of each enzyme was measured. […] Contrarily, mcl-derived enzyme was activated by 5 mM DMAPP and its activity increased by 20% from that of the control.
Activity when 10 μl of each enzyme was added to 1 ml of the reaction system was represented by dABS/min
Effect of 1 mM diphosphomevalonate (DPM) on each enzyme was also studied.

The test system of data set [4] is mevalonate kinase. Nature of the data set: Examination of product inhibition on each mevalonate kinase (absorbance at 386 nm, PMK addition). The settings on record: in words; for course of decrease in absorbance at 386 nm until PMK addition: 1 mM mevalonate as substrate. As to the method:
When decrease in absorbance stopped, purified PMK was added to measure further decrease in absorbance at 386 nm.
FIG. 18 presents the SDS-PAGE profile of the purified PMK. […] Then, absorbance decreased further and finally absorbance at 386 nm decreased to 0.3 in all reaction systems. Therefore, it is inferred that mevalonate is converted into diphosphomevalonate via phosphomevalonate by adding PMK to each MVK.

[5] abbreviates: Table 11 control without terpenyl diphosphate (methanol added).

Where “and” joins values, the source holds several entries; their conditions need not be identical. Equal entries are not always repeated.

B1: mma: known mevalonate kinase derived from Methanosarcina mazei (SEQ ID NO:12), His-tagged purified enzyme (protein, listed as Methanosarcina mazei)
chain: MVSCSAPGKIYLFGEHAVVYGETAIACAVELRTRVRAELNDSITIQSQIGRTGLDFEKHPYVSAVIEKMRKSIPINGVFLTVDSDIPVGSGLGSSAAVTIASIGALNELFGFGLSLQEIAKLGHEIEIKVQGAASPTDTYVSTFGGVVTIPERRKLKTPDCGIVIGDTGVFSSTKELVANVRQLRESYPDLIEPLMTSIGKISRIGEQLVLSGDYASIGRLMNVNQGLLDALGVNILELSQLIYSARAAGAFGAKITGAGGGGCMVALTAPEKCNQVAEAVAGAGGKVTITKPTEQGLKVD
modifications: His-tag
For the molecule B1, in the data set with mevalonate kinase [1], the “enzyme activity, pET21 system (C terminal Tag)” value (shortened to “enzyme activity, pET21 system”) came to 0.225 dABS/min/10 μl and the “enzyme activity, pET28 system (N terminal Tag)” value (“enzyme activity, pET28 system” for short) is listed as 0.231 dABS/min/10 μl. In the data set with mevalonate kinase [2] (potassium mevalonate 5 mM), the “dABS/min at ATP 0.04 mM” value is 0.01326 dABS/min and 0.01358 dABS/min and 0.01398 dABS/min; the “dABS/min at ATP 0.2 mM” value is 0.05835 dABS/min and 0.05848 dABS/min and 0.05859 dABS/min; the “dABS/min at ATP 1 mM” value was 0.1533 dABS/min (2×) and 0.1528 dABS/min. Further, in the data set on mevalonate kinase [2] (ATP 5 mM), the “dABS/min at mev 0.01 mM” value is 0.02921 dABS/min and 0.02805 dABS/min and 0.02788 dABS/min; the “dABS/min at mev 0.04 mM” value is 0.08012 dABS/min and 0.08006 dABS/min and 0.08009 dABS/min; the “dABS/min at mev 0.2 mM” value is 0.1761 dABS/min and 0.1758 dABS/min and 0.176 dABS/min. In addition, the “enzyme activity, Control” value in the data set with mevalonate kinase [3] (setting [5]) stood at 0.21 dABS/min. In addition, the “enzyme activity, Control” value with mevalonate kinase [3] (Table 12 control without DPM) is listed as 0.1604 dABS/min. Moreover, the “course of decrease in absorbance at 386 nm until PMK addition” value (“course of decrease in absorbance” below) with mevalonate kinase [4] is recorded as “almost linear decrease in absorbance”.

B2: nmr: mevalonate kinase derived from Nitrosopumilus maritimus (SEQ ID NO:9), His-tagged purified enzyme (protein, listed as Nitrosopumilus maritimus)
chain: MKSKASAPGKVILFGEHFVVYGVKAILCAINKRIAVTAEKIDERKISIKSNIGHLELEPNKPISEINSPLKPFYYLANKIIQDKNFGIKIDVESEIPLGVGLGSSSACCVAGAAAISNLFENNSKEEILKLAIEAEKTIFQNTSGADCTVCTFGGLMEYDKENGFSKIESEPNFHLVIANSNVEHSTESVVAGVRKFKKNNEAEFSKLCKDESHLIENVLELLKENNIRELGERVIKNQEYLERIGISNAKLREMIQTGQNSSFGAKITGAGGGGCIFALTDESNLENTIKEFKEKNHECFSVKIDFKGLDTF
modifications: His-tag
B2: in the data set on mevalonate kinase [1], the “enzyme activity, pET21 system” value is 0.137 dABS/min/10 μl and the “enzyme activity, pET28 system” value came out at 0.247 dABS/min/10 μl. In the data set with mevalonate kinase [2] (potassium mevalonate 5 mM), the “dABS/min at ATP 0.04 mM” value is 0.007781 dABS/min and 0.00767 dABS/min and 0.007932 dABS/min; the “dABS/min at ATP 0.2 mM” value was 0.03637 dABS/min and 0.03629 dABS/min and 0.03625 dABS/min; the “dABS/min at ATP 1 mM” value is 0.1089 dABS/min and 0.1084 dABS/min and 0.1085 dABS/min. In addition, in the data set with mevalonate kinase [2] (ATP 5 mM), the “dABS/min at mev 0.04 mM” value was 0.01691 dABS/min and 0.01687 dABS/min and 0.0168 dABS/min; the “dABS/min at mev 0.2 mM” value was 0.06788 dABS/min and 0.06784 dABS/min and 0.06777 dABS/min. Besides, in the data set with mevalonate kinase [2] (potassium mevalonate 1 mM, ATP 5 mM), the “dABS/min at mev 1 mM” value is 0.1521 dABS/min and 0.1522 dABS/min and 0.153 dABS/min. In addition, in the data set on mevalonate kinase [3] (setting [5]), the “enzyme activity, Control” value is 0.2438 dABS/min. In addition, the “enzyme activity, Control” value with mevalonate kinase [3] (Table 12 control without DPM) is 0.2064 dABS/min. For the same molecule, in the data set on mevalonate kinase [4], the “course of decrease in absorbance” value was “decrease in the rate of reaction associated with the progression of reaction” and the DPM-induced inhibition result is given as “not observed”.

B3: sce: mevalonate kinase of Saccharomyces cerevisiae encoded by the ERG12 gene, His-tagged purified enzyme (protein, UniProt P07277 1-443, looked up)
Mevalonate kinase: MSLPFLTSAPGKVIIFGEHSAVYNKPAVAASVSALRTYLLISESSAPDTIELDFPDISFNHKWSINDFNAITEDQVNSQKLAKAQQATDGLSQELVSLLDPLLAQLSESFHYHAAFCFLYMFVCLCPHAKNIKFSLKSTLPIGAGLGSSASISVSLALAMAYLGGLIGSNDLEKLSENDKHIVNQWAFIGEKCIHGTPSGIDNAVATYGNALLFEKDSHNGTINTNNFKFLDDFPAIPMILTYTRIPRSTKDLVARVRVLVTEKFPEVMKPILDAMGECALQGLEIMTKLSKCKGTDDEAVETNNELYEQLLELIRINHGLLVSIGVSHPGLELIKNLSDDLRIGSTKLTGAGGGGCSLTLLRRDITQEQIDSFKKKLQDDFSYETFETDLGGTGCCLLSAKNLNKDLKIKSLVFQLFENKTTTKQQIDDLLLPGNTNLPWTS
modifications: His-tag
Regarding B3, in the data set with mevalonate kinase [1], the “enzyme activity, pET21 system” value is 0.001 dABS/min/10 μl and the “enzyme activity, pET28 system” value amounted to 0.127 dABS/min/10 μl. Moreover, in the data set on mevalonate kinase [2] (potassium mevalonate 5 mM), the “dABS/min at ATP 0.2 mM” value is 0.03041 dABS/min and 0.0304 dABS/min and 0.03229 dABS/min; the “dABS/min at ATP 1 mM” value was 0.07032 dABS/min and 0.07022 dABS/min and 0.0702 dABS/min. The “dABS/min at ATP 5 mM” value in the data set on mevalonate kinase [2] (ATP 5 mM, potassium mevalonate 5 mM) is 0.09422 dABS/min and 0.0941 dABS/min and 0.09418 dABS/min. Also, in the data set on mevalonate kinase [2] (ATP 5 mM), the “dABS/min at mev 0.01 mM” value is 0.01813 dABS/min and 0.01981 dABS/min and 0.01853 dABS/min; the “dABS/min at mev 0.04 mM” value was 0.05257 dABS/min and 0.05264 dABS/min and 0.05265 dABS/min; the “dABS/min at mev 0.2 mM” value was 0.11 dABS/min and 0.1103 dABS/min (2×). In the data set with mevalonate kinase [3] (setting [5]), the “enzyme activity, Control” value was determined as 0.1365 dABS/min. Also, the “enzyme activity, Control” value in the data set with mevalonate kinase [3] (Table 12 control without DPM) is given as 0.1028 dABS/min. Besides, in the data set on mevalonate kinase [4], the “course of decrease in absorbance” value is “almost linear decrease in absorbance”.
